Experimental data from US20240117018A1.

Assays:
Assay in all cases: cell-based or functional assay
[1] = biological target: HIV-1 Env pseudovirus 0815.v3.c3 (HIV-1)
[2] = biological target: HIV-1 Env pseudovirus 3016.v5.c45 (HIV-1)
[3] = biological target: HIV-1 Env pseudovirus 3817.v2.c59 (HIV-1)
[4] = biological target: HIV-1 Env pseudovirus 6041.v3.c23 (HIV-1)
[5] = biological target: HIV-1 Env pseudovirus 6540.v4.c1 (HIV-1)
[6] = biological target: HIV-1 Env pseudovirus BJOX015000.11.5 (HIV-1)
[7] = biological target: HIV-1 Env pseudovirus CNE5 (HIV-1)
[8] = biological target: HIV-1 Env pseudovirus T251-18 (HIV-1)
[9] = biological target: HIV-1 Env pseudovirus X1254_c3 (HIV-1)
[10] = biological target: HIV-1 Env pseudovirus X1632_S2_B10 (HIV-1)

Row | Substance | IC50 (Titer in TZM.bl cells) [1] | IC80 (Titer in TZM.bl cells) [1] | IC50 (Titer in TZM.bl cells) [2] | IC80 (Titer in TZM.bl cells) [2] | IC50 (Titer in TZM.bl cells) [3] | IC80 (Titer in TZM.bl cells) [3] | IC50 (Titer in TZM.bl cells) [4] | IC80 (Titer in TZM.bl cells) [4] | IC50 (Titer in TZM.bl cells) [5] | IC80 (Titer in TZM.bl cells) [5] | IC50 (Titer in TZM.bl cells) [6] | IC80 (Titer in TZM.bl cells) [6] | IC50 (Titer in TZM.bl cells) [7] | IC80 (Titer in TZM.bl cells) [7] | IC50 (Titer in TZM.bl cells) [8] | IC80 (Titer in TZM.bl cells) [8] | IC50 (Titer in TZM.bl cells) [9] | IC80 (Titer in TZM.bl cells) [9] | IC50 (Titer in TZM.bl cells) [10] | IC80 (Titer in TZM.bl cells) [10]
1 | 3BNC117 (antibody) | 0.01 µg/mL | 0.02 µg/mL | 1.38 µg/mL | > 30 µg/mL | 0.15 µg/mL | 0.52 µg/mL | 0.01 µg/mL | 0.07 µg/mL | > 50 µg/mL | > 50 µg/mL | 0.05 µg/mL | 0.32 µg/mL | 0.28 µg/mL | 1.28 µg/mL | 0.26 µg/mL | 0.82 µg/mL | 0.08 µg/mL | 0.27 µg/mL | 15.7 µg/mL | > 50 µg/mL
2 | VRC07 (antibody) | 0.015 µg/mL | 0.051 µg/mL | 0.095 µg/mL | 0.392 µg/mL | 1.9 µg/mL | 19.8 µg/mL | 0.018 µg/mL | 0.058 µg/mL | > 50 µg/mL | > 50 µg/mL | 0.054 µg/mL | 0.479 µg/mL | 0.138 µg/mL | 0.524 µg/mL | 1.32 µg/mL | 6.49 µg/mL | 0.041 µg/mL | 0.2 µg/mL | 0.023 µg/mL | 0.107 µg/mL
3 | 8ANC195 (antibody) | 1.94 µg/mL | 1.94 µg/mL | 0.87 µg/mL | > 50 µg/mL | 1 µg/mL | 5.3 µg/mL | > 50 µg/mL | > 50 µg/mL | > 50 µg/mL | > 50 µg/mL | 0.97 µg/mL | 4.3 µg/mL | 2.12 µg/mL | 9.67 µg/mL | 1.51 µg/mL | 1.51 µg/mL | 6.95 µg/mL | 6.95 µg/mL | 0.47 µg/mL | 4.11 µg/mL
